Experimental data published in article PMC3799435, “Dissecting the interactions of SERRATE with RNA and DICER-LIKE 1 in Arabidopsis microRNA precursor processing” (Nucleic Acids Research, 2013).

Columns and labels:
[1] = biological target: DCL1;SE143-720 (Arabidopsis thaliana;Arabidopsis …, UniProt Q9SP32;Q9ZVD0 1-1909;143-720, |del1-142); experiment: SPR; SE143-720 injected on preformed DCL1/RNA complex, 50 mM NaCl; SPR (Biacore T100): 20 mM Tris-HCl pH 7.0, 50 or 150 mM NaCl, 2 mM β-ME (0.005% P20 for SE variants); proteins 42-43 nM (Fig 2E), SE 20 nM (Fig 4), 16 nM DCL1 for complex; temperature not stated; conditions: protein: recombinant;recombinant; tags: none (His6-StrepII-SUMOstar removed);N-terminal His6; vector also has inserted myc and Strep-tag II; label: 5'-biotin on strand 1; fork: 40 bp duplex; 20-nt 3' tail of strand 1 and 20-nt 5' tail of strand 2 unpaired; other end blunt
[2] = biological target: T1, SEΔ497-547 (Arabidopsis thaliana, UniProt Q9ZVD0 1-720, del497-547); experiment: SPR; 50 mM NaCl, 20 nM; as wild-type SE; SPR (Biacore T100): 20 mM Tris-HCl pH 7.0, 50 or 150 mM NaCl, 2 mM β-ME (0.005% P20 for SE variants); proteins 42-43 nM (Fig 2E), SE 20 nM (Fig 4), 16 nM DCL1 for complex; temperature not stated; conditions: protein: recombinant; tags: N-terminal His6; vector also has inserted myc and Strep-tag II; label: 5'-biotin on strand 1; fork: 40 bp duplex; 20-nt 3' tail of strand 1 and 20-nt 5' tail of strand 2 unpaired; other end blunt
T1 sequence: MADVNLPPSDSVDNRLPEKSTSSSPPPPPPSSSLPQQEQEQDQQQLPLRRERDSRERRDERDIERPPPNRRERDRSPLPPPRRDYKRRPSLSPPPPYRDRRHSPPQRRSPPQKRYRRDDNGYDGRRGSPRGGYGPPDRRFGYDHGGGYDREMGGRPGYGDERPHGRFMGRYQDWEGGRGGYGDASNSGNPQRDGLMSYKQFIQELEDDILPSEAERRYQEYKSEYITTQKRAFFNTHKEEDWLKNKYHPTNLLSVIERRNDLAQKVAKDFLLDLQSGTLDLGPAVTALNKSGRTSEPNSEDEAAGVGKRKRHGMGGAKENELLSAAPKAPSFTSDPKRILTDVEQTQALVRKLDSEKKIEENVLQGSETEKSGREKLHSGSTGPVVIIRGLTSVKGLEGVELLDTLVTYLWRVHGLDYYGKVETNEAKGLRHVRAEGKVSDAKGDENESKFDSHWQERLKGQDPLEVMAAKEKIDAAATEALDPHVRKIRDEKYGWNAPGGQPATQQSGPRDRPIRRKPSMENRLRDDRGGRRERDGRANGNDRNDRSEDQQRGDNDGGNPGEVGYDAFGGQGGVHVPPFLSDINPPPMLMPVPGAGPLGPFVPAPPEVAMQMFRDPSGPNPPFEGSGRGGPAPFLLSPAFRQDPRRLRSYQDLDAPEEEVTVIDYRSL

[3] = biological target: T2, SE1-701 (Arabidopsis thaliana, UniProt Q9ZVD0 1-701, del702-720); experiment: as above; conditions: protein: recombinant; tags: N-terminal His6; vector also has inserted myc and Strep-tag II; label: 5'-biotin on strand 1; fork: 40 bp duplex; 20-nt 3' tail of strand 1 and 20-nt 5' tail of strand 2 unpaired; other end blunt
T2 sequence: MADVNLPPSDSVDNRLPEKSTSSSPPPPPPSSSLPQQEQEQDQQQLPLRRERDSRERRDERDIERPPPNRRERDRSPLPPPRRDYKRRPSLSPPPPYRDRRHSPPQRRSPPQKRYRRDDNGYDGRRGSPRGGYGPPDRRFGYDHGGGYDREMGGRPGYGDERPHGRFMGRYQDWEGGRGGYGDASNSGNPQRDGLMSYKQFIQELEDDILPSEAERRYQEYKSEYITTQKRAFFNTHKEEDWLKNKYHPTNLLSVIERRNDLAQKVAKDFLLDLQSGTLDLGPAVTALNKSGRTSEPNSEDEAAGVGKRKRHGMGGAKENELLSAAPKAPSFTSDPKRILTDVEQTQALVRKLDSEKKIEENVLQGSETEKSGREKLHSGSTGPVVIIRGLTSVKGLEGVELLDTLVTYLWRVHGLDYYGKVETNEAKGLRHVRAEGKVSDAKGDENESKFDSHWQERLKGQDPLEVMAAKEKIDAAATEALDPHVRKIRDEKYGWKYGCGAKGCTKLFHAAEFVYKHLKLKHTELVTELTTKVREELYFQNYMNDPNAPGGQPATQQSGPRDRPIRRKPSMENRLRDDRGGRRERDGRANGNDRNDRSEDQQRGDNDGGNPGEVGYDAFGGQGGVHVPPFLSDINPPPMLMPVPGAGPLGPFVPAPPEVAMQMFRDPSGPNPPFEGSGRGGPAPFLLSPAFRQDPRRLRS

Chain of DCL1;SE143-720 (Q9SP32 whole entry, stated change not applied, one chain of several): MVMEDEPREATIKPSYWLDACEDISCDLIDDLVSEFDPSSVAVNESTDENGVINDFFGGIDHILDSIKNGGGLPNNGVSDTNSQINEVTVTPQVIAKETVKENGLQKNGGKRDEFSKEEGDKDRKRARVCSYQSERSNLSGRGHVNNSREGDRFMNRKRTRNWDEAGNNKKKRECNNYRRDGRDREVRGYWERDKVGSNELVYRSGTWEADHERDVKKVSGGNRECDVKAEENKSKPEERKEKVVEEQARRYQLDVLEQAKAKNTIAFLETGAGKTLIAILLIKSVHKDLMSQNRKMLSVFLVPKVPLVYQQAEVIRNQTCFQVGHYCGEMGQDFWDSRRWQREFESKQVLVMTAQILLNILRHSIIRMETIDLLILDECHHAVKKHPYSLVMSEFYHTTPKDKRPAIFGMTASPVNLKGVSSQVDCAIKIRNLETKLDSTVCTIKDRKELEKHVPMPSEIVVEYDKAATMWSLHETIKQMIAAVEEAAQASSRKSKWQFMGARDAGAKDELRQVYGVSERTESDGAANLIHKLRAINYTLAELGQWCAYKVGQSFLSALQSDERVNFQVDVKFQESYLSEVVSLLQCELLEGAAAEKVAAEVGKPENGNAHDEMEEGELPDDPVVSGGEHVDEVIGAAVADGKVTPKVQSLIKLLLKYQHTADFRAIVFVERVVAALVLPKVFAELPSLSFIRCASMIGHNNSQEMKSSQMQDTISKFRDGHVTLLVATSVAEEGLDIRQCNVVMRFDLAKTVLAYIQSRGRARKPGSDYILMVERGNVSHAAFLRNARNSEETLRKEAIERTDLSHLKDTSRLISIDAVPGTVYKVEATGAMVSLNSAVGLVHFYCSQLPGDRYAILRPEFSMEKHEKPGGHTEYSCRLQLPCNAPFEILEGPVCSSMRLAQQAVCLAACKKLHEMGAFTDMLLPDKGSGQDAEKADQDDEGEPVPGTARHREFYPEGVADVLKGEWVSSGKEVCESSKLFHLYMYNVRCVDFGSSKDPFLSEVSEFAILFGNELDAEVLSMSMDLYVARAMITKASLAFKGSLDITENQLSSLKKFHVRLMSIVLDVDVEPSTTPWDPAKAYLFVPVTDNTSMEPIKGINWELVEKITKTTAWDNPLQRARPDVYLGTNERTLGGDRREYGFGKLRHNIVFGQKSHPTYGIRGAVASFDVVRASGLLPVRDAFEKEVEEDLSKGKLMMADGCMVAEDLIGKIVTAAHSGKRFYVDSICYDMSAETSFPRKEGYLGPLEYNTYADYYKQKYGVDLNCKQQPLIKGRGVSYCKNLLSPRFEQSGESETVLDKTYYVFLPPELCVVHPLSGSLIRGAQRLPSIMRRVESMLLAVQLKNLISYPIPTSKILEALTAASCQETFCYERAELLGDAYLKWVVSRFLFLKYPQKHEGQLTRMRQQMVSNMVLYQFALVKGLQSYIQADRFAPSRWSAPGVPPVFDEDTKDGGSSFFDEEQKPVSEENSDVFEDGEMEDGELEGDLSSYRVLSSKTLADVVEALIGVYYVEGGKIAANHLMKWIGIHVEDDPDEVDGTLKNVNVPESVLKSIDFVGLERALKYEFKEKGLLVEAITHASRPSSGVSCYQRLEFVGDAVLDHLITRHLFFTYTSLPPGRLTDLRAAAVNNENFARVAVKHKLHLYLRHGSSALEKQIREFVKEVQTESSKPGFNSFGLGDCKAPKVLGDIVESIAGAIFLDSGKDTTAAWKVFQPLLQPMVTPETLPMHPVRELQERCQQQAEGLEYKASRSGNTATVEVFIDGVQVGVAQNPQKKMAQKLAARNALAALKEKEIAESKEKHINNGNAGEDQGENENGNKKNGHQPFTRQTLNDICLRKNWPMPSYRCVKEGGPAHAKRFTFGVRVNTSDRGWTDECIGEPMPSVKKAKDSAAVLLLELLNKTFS

B1: forked-RNA (dsRNA)
RNA 1: CAACCCAAGAUAGAUCAUGCAGGCAGCUUCAUCAGAUGCCGCUCCCUCUUUUUUUCUCUA
RNA 2: GCUCCCUCUUUUUUUCUCUAGGCAUCUGAUGAAGCUGCCUGCAUGAUCUAUCUUGGGUUG
[1]
  binding signal: 2 fold less RUmax vs wild-type SE
[2]
  binding result: binds
[3]
  binding result: binds
